B1: SlLCY1pro probe (dsDNA)
DNA 1: ACCGTTCACCGTTCACCGTTC
DNA 2: GAACGGTGAACGGTGAACGGT
B2: SlPR5pro probe (dsDNA)
DNA 1: TCCGTTCTCCGTTCTCCGTTC
DNA 2: GAACGGAGAACGGAGAACGGA
B3: SlPSY2pro probe (dsDNA)
DNA 1: TCGGTTATCGGTTATCGGTTA
DNA 2: TAACCGATAACCGATAACCGA

What follows are binders tested against SlMYB1-GST (Solanum lycopersicum, UniProt A0A3Q7I0H7 1-380) (assay: EMSA; EMSA/Gel-Shift kit (Biyuntian/Beyotime) per instructions; buffer, salt, pH and temperature not stated). Details: protein: recombinant; tags: GST (pGEX-4T-1, N-terminal by vector); label: biotin; blunt.
Sequence of SlMYB1-GST (A0A3Q7I0H7 entry or part of it): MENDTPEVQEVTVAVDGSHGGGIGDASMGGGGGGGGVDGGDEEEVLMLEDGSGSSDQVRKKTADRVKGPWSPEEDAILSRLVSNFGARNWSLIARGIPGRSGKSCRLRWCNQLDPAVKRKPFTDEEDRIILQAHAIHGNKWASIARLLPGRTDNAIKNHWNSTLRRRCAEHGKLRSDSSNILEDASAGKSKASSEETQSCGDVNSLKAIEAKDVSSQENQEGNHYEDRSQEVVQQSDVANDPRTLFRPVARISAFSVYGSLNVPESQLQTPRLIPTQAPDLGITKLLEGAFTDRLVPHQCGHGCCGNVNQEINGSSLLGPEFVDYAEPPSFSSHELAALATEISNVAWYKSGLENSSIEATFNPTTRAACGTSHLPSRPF
B1: binds.
B2: binds.
B3: binds.

Source: paper PMC9930398, “SlMYB1 regulates the accumulation of lycopene, fruit shape, and resistance to Botrytis cinerea in tomato”
